Test results as given in article doi:10.1101/2023.06.14.544911.

Experiments:
Assay in all cases: pull-down
ZCCHC3 MF R168S (human) = test system: ZCCHC3 MF R168S (human)
ZCCHC3 MF R247S (human) = test system: ZCCHC3 MF R247S (human)
[1] = target: T1, ZCCHC3 MF R168/247S R168S;R247S (human) (UniProt Q9NUD5)
T1 sequence: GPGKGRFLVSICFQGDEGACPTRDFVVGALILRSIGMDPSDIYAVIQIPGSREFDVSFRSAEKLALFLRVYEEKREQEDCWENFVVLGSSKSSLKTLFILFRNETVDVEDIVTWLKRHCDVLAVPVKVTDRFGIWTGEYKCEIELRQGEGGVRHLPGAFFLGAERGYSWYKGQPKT

HIV-1 LTR (R-U5) RNA
binding signal (ZCCHC3 MF R168S (human)): 50 % of WT MF
binding signal (ZCCHC3 MF R247S (human)): 50 % of WT MF
binding signal [1]: 15 % of WT MF
